Measured values as given in article doi:10.1101/2021.06.14.448324.

Tests used:
[1] = molecular target: DTX3L D1 domain (human); assay: cross-linking
[2] = molecular target: DTX3L D2 domain (human); assay: cross-linking

Row | stoichiometry N [1] | stoichiometry N [2] | Substance
1 | 2 |  | DTX3L D1 domain (domain or fragment)
2 |  | 4 | DTX3L D2 domain (domain or fragment)
